Measured values published in the domain aggregation screens of Martell et al. (2025).

Assay: soluble fraction after stress (log2 fold change); higher = more stays soluble; pooled small domains, quantitative proteomics
Conditions: stress: 50 degC
Procedure, shortened: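 Pooled custom libraries of small protein domains were each held under stress at 50°C. The read-out, high-throughput quantitative proteomics, tracked how much of each protein stayed soluble. This is reported as a base-two log fold change used to indicate aggregation propensity. Higher values mean more protein remains in solution.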

| Sequence | soluble fraction (log2) |
| --- | --- |
| HMQGDHELSQRILSYLSEQGGSSPLTDKASPEEIYRIFRVSKKKYKQALGNLYKSKSIIILADKIQLL | -0.736 |
| HMQGEDEILKIHEALEELAQIDARLVRVVEMRYFVGLSNQEIADSLGVTTRTVERDWEKARTFLFNALHP | -1.4 |
| HMQGISGIERSLLDALAFEPAGLDALQARTGLDTPTLQALLMGLELQGHVARLPGSLFQRLVR | -0.523 |
| HMQGVTVPDLTRVSLEEAVATISSLGLRYEISDRRSNAAFPANYVLDQAPGANTIVKPNRKVYLTVNAA | 0.35 |
| HMQGWREWDYSADLYINARVGGKIEPTENSPISRVYELDEPVSVVAFTSTRYFKLSSGDYIFAEYLSAQKV | -1.2 |
| HMQGYELKMYVTPDTKYSVAVYDAKNEMVSYTMGFSAKAPFGQEGEVLETVKLEFDKLAVGNYELKYWI | 0.314 |
| HMQHYQFEVDEASSKKRLDVFLSENLPEISRSRLKKLIDEKRVTVNEMSRPAGYKVRVKEKIEFHIPPL | -0.402 |
| HMQIAEAESLGQRLLQQSINNIVGRDEAITEERLNRVLSQYSLTGRDELMAQIGLGNRNSSLVAKAMYDI | 0.0632 |
| HMQIKEVDYGTFISMTEDGEIGRVEIQQQENTILFTDEDETAVYKTAMVEDDQLTQRLYDAGISFYGEE | -0.0136 |
| HMQILVEGVEANQRLDLFLRARLTEFSRSRIQGLVKNGNVLVNGNIARQAYLVQVGDKIELDVPEPVA | -0.487 |
| HMQIMVVDEADRMLDMGFIPDIERIFQLTPFTRQTLFFSATMAPEIERITDTFLHSPERIEVAR | -0.288 |
| HMQISDDGFILKIINEVVAENPKSISDYISGKEAAVGFLVGQIMKKTRGKANPKLVNEMLITELAKLKN | -0.0439 |
| HMQISDESSIAKIADEVISEFPSQVSEFRSGKEKVLQFLIGQVMKKTKGKANPQITAKILREKLS | 0.119 |
| HMQISDSASVKTVVAEAIAANPKAVADFMNGKDTATRYLVGQVMKITKGQAKPELVNQLVLESLAELKEK | 0.335 |
| HMQISDSGELEKIVLQVIEENPKPAEQVRSGNEKAIGALVGGVMKATQGRADGGEVNRLLRQHLGL | 0.172 |
| HMQISDVSLIAKVIDDVIDNNVKSVSDYLEGNLNVLRFLVGQVMKETKGKANPQKATELLQEKLESLNN | -0.429 |
| HMQISLDTKLINLEFSVRANNVFRENQIFTLRDLTSHSKEDLMLMTNFGKTTLYEVNKKLEEHQLKLSQ | -2.69 |
| HMQISNEEELEKIIENVIESNPEKVKAYQSGKSGLIGFFMGQVMKESGGQANPNLVNQILKGKL | 0.202 |
| HMQIYSQEIYDAQKVLKELGLYTSDLDGLNGPGTKRALRNFQSKSGLNADGVLGPLTKSALDKGEESYITV | 0.0375 |
| HMQKADFDYGDYVDLGLAMGRQSRQLREAVGIKLGIGYANSKRFYQRLQTFGISLAELKQAVEEAENDQQN | -0.735 |
| HMQKEMDIVLQINGKMRSNLKVSSTANDDEIIKTAIESDAYKKFSLGLRIQKTIIVPNRLINIVLEK | -0.985 |
| HMQKIYTIARGDTLSHIVAGTLKQQGIAYTTGELYRLVNVVAQYNDILNPNRIYTGHQLDLTPLYSED | -0.103 |
| HMQKLLGPFEDFVKIKLDKYPDTKAAQMHDWLKEHYPDFPEVTPKTVYNFVMYVRQRHNIPIPD | -0.0276 |
| HMQKTVLAASVYERMKERIMDQYYPPGERLNIDALAIDLAVSPTPIREALARLAAERLITFEAYKGYRVSP | -1.87 |
| HMQLEPLVTSVIPVNFAKASDISGTIKGKEVGLLSERGNITAENRTNVLIVKDIRKSVDEINAMVKRLD | -0.0183 |
| HMQLFKFKNAMMELAKNKNITLDTAEKAIGLEAGFTELVARGVKELALSDVIKISKYFNTTMDSVLD | -0.903 |
| HMQLPFTPREHEITQLLSRGLSNRQIAEALSLSVRTVEGHIYQASTKLGISSRSELAVLVGQFA | -1.89 |
| HMQLSQLLQPFDINAFKGHPLYTEENVKMFNDYTNRVKEWTKGTPYEQYWVTKEGQPTMLAWDSFKK | -0.972 |
| HMQLTQEAIENLFKITTAKKFREELEKLVVTDSEKKAFAYFTVYHPKLKELPFAILKSVENYTGISI | -0.871 |
| HMQLVPGIGRLSARELEVFTLIGRGLGTSEIGKKLGVSAYTVQTHRNHIKEKLNLPNAAAITYWAIQWAHG | -2.14 |
